This experiment has as its target human CLDN18.2 expressed on cells (human). Briefly: cell-based or functional assay.

The results in this text go back to patent US20250263482A1.

As to Human IgG1 isotype antibody, the ADCC on KATOIII CLDN18.2 cells, LDH: max (% cytotoxity), run A is 0.3%; the ADCC on KATOIII CLDN18.2 cells, LDH: max (% cytotoxity), run B is -5.51%; the ADCC on KATOIII CLDN18.2 cells, LDH: max (% cytotoxity), run C is -7.64%; the ADCC on NCI-N87 CLDN18.2 cells, LDH: max (% cytotoxity), run A is -6.73%. For the same substance, the ADCC on NCI-N87 CLDN18.2 cells, LDH: max (% cytotoxity), run B was -11.7%; the ADCC on NCI-N87 CLDN18.2 cells, LDH: max (% cytotoxity), run C is -9.22%; the CDC on CT26 CLDN18.2 cells, LDH: max (% cytotoxity), run A was 10.8%; the CDC on CT26 CLDN18.2 cells, LDH: max (% cytotoxity), run B is -0.23%. The CDC on CT26 CLDN18.2 cells, LDH: max (% cytotoxity), run C was -0.38%; the CDC on KATOIII CLDN18.2 cells, LDH: max (% cytotoxity), run A was -0.85%; the CDC on KATOIII CLDN18.2 cells, LDH: max (% cytotoxity), run B is -2.46%; the CDC on KATOIII CLDN18.2 cells, LDH: max (% cytotoxity), run C was -1.53%.
